Experimental data: patent US20150344570A1 (published 2015)

T1: FcγRIIb extracellular domain with C-terminal His tag (human, UniProt P31994 43-217)
T1 construct: extracellular domain; Soluble receptor expressed in FreeStyle293 cells, used as analyte in Biacore; also called FcgRIIb; 2b; not shown: His tag attached to the C terminus
T1 sequence (looked up): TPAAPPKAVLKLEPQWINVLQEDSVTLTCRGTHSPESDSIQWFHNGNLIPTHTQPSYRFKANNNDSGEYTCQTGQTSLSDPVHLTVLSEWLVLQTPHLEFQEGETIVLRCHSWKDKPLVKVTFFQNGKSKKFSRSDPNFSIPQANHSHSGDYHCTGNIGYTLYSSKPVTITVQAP

B1: GpH7-A5/GpH7-B3 variant S267_08L/GpL16-k0 (antibody, human IgG1, kappa)
heavy 1: not shown
heavy 2: not shown
light: DIVMTQSPLSLPVTPGEPASISCQASESLVHSNRNTYLHWYLQKPGQSPQLLIYKVSNRFSGVPDRFSGSGSGTDFTLKISRVEAEDVGVYYCSQNTHVPPTFGQGTKVEIERTVAAPSVFIFPPSDEQLKSGTASVVCLLNNFYPREAKVQWKVDNALQSGNSQESVTEQDSKDSTYSLSSTLTLSKADYEKHKVYACEVTHQGLSSPVTKSFNRGEC
notes: Heterodimerized antibody (He Ab) with the mutation in only one H chain; also called He Ab S267L
B2: GpH7-B3 variant S324_01G/GpL16-k0 (Ho Ab) (antibody, human IgG1, kappa)
heavy: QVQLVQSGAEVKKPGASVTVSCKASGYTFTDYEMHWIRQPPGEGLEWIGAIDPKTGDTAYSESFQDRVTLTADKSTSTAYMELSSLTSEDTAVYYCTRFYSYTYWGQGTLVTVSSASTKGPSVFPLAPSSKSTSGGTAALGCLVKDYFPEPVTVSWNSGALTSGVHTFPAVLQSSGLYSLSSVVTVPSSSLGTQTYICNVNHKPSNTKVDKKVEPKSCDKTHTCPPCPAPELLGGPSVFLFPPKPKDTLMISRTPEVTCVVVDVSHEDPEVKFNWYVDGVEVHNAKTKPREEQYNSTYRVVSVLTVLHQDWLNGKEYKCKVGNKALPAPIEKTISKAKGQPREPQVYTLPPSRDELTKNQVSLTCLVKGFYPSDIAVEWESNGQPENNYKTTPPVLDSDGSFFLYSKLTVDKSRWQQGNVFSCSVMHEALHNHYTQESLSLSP
light: B1 light
notes: Homodimerized anti-glypican-3 antibody; the alteration stands in both H chains
B3: GpH7-A5/GpH7-B3 variant S324_01G/GpL16-k0 (He Ab) (antibody, human IgG1, kappa)
heavy 1: not shown
heavy 2: not shown
light: B1 light
notes: Heterodimerized anti-glypican-3 antibody; the alteration stands only in the GpH7-B3 chain
B4: GpH7-A5/GpH7-B3 variant S324_06M/GpL16-k0 (He Ab) (antibody, human IgG1, kappa)
heavy 1: not shown
heavy 2: not shown
light: B1 light
notes: as for B3
B5: GpH7-A5/GpH7-B3 variant S324_09D/GpL16-k0 (He Ab) (antibody, human IgG1, kappa)
heavy 1: not shown
heavy 2: not shown
light: B1 light
notes: as for B3
B6: GpH7-B3 variant S298_03V/GpL16-k0 (Ho Ab) (antibody, human IgG1, kappa)
heavy: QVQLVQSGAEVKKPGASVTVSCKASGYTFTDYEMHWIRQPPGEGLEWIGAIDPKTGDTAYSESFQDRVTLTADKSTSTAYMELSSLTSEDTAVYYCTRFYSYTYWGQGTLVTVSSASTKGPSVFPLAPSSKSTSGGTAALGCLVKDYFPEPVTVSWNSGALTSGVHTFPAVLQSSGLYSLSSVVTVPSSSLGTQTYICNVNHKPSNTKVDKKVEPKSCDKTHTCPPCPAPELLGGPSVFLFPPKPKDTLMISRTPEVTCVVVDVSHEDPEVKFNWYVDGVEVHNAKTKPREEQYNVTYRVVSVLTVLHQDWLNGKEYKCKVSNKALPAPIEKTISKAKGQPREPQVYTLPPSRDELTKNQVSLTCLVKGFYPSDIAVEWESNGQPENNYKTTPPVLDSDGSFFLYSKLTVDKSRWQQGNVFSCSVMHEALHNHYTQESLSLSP
light: B1 light
notes: as for B2
B7: GpH7-A5/GpH7-B3 variant H268_05P/GpL16-k0 (antibody, human IgG1, kappa)
heavy 1: not shown
heavy 2: not shown
light: B1 light
notes: Heterodimerized antibody (He Ab) with the mutation in only one H chain; also called He Ab H268P
B8: GpH7-A5/GpH7-B3 variant T335_08L/GpL16-k0 (He Ab) (antibody, human IgG1, kappa)
heavy 1: not shown
heavy 2: not shown
light: B1 light
notes: as for B3
B9: GpH7-A5/GpH7-B3 variant S324_20W/GpL16-k0 (He Ab) (antibody, human IgG1, kappa)
heavy 1: not shown
heavy 2: not shown
light: B1 light
notes: as for B3
B10: GpH7-B3 variant T335_08L/GpL16-k0 (Ho Ab) (antibody, human IgG1, kappa)
heavy: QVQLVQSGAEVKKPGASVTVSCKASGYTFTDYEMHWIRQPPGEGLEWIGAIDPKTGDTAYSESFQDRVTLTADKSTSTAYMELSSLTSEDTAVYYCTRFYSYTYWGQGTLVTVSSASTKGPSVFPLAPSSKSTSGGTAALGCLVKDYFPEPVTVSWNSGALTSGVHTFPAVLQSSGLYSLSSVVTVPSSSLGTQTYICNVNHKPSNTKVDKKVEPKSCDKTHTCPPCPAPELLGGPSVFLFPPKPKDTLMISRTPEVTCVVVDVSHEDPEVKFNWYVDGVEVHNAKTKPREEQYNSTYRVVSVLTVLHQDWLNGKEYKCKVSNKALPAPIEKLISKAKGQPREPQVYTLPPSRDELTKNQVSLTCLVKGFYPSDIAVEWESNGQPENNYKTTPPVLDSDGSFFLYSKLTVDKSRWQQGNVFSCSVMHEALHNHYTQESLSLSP
light: B1 light
notes: as for B2
B11: GpH7-A5/GpH7-B3 variant P271_01G/GpL16-k0 (antibody, human IgG1, kappa)
heavy 1: not shown
heavy 2: not shown
light: B1 light
notes: Heterodimerized antibody (He Ab) with the mutation in only one H chain; also called He Ab P271G
B12: GpH7-A5/GpH7-B3 variant P271_08L/GpL16-k0 (antibody, human IgG1, kappa)
heavy 1: not shown
heavy 2: not shown
light: B1 light
notes: Heterodimerized antibody (He Ab) with the mutation in only one H chain; also called He Ab P271L
B13: GpH7-B3 variant T335_06M/GpL16-k0 (Ho Ab) (antibody, human IgG1, kappa)
heavy: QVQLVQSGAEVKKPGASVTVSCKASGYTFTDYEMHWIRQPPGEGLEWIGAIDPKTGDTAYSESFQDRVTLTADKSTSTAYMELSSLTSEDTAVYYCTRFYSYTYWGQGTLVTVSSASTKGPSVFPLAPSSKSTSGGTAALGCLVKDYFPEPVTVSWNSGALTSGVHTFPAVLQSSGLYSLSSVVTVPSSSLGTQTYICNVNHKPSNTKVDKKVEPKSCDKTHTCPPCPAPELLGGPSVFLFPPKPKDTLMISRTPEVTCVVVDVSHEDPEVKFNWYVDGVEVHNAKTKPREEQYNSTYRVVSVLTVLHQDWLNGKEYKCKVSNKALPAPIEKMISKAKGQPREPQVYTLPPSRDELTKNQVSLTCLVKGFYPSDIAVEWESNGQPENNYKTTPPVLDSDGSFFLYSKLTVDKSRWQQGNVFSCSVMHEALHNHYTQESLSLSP
light: B1 light
notes: as for B2
B14: GpH7-A5/GpH7-B3 variant S239_10E/GpL16-k0 (He Ab) (antibody, human IgG1, kappa)
heavy 1: not shown
heavy 2: not shown
light: B1 light
notes: as for B3
B15: GpH7-A5/GpH7-B3 variant S267_09D/GpL16-k0 (antibody, human IgG1, kappa)
heavy 1: not shown
heavy 2: not shown
light: B1 light
notes: Heterodimerized antibody (He Ab) with the mutation in only one H chain; also called He Ab S267D
B16: GpH7-B3 variant S337_16H/GpL16-k0 (Ho Ab) (antibody, human IgG1, kappa)
heavy: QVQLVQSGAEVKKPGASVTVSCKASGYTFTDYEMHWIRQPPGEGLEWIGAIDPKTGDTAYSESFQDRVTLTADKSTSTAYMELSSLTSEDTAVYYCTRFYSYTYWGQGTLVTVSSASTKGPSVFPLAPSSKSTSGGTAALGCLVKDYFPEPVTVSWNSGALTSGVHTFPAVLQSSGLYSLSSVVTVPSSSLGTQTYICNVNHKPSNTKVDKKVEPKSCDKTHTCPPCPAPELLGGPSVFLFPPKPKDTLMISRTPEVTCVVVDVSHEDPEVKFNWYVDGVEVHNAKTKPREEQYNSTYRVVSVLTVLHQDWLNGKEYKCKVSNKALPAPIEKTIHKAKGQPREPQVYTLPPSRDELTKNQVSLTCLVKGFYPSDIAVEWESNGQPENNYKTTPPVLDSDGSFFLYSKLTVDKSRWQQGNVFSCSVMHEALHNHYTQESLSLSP
light: B1 light
notes: as for B2
B17: GpH7-A5/GpH7-B3 variant H268_02A/GpL16-k0 (antibody, human IgG1, kappa)
heavy 1: not shown
heavy 2: not shown
light: B1 light
notes: Heterodimerized antibody (He Ab) with the mutation in only one H chain; also called He Ab H268A
B18: GpH7-A5/GpH7-B3 variant H268_13S/GpL16-k0 (antibody, human IgG1, kappa)
heavy 1: not shown
heavy 2: not shown
light: B1 light
notes: Heterodimerized antibody (He Ab) with the mutation in only one H chain; also called He Ab H268S
B19: GpH7-A5/GpH7-B3 variant H268_01G/GpL16-k0 (antibody, human IgG1, kappa)
heavy 1: not shown
heavy 2: not shown
light: B1 light
notes: Heterodimerized antibody (He Ab) with the mutation in only one H chain; also called He Ab H268G
B20: GpH7-B3 variant S324_09D/GpL16-k0 (Ho Ab) (antibody, human IgG1, kappa)
heavy: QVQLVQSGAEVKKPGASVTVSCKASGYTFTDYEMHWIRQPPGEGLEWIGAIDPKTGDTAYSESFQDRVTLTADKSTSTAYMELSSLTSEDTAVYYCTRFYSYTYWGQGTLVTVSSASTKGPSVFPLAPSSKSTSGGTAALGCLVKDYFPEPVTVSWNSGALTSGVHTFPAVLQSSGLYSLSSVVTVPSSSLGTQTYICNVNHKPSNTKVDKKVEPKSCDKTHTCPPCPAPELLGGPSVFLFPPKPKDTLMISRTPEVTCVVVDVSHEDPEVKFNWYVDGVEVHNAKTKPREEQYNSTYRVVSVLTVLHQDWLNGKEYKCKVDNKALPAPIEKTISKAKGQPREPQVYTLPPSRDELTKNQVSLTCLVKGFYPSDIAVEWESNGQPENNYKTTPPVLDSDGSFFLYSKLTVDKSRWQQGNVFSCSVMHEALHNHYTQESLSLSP
light: B1 light
notes: as for B2
B21: GpH7-B3 variant S324_14T/GpL16-k0 (Ho Ab) (antibody, human IgG1, kappa)
heavy: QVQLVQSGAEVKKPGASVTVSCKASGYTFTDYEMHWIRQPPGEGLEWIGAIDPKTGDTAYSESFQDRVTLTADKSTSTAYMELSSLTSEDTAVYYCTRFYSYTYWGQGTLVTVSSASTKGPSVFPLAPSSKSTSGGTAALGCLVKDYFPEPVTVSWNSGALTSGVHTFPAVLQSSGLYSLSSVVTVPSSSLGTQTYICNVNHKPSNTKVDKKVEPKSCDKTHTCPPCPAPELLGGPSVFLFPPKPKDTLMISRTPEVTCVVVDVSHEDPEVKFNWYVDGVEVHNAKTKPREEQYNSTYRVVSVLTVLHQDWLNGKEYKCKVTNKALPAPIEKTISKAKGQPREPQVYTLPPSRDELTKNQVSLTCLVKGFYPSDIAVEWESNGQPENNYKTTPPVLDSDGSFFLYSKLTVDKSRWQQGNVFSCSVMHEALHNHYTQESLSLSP
light: B1 light
notes: as for B2
B22: GpH7-B3 variant S324_06M/GpL16-k0 (Ho Ab) (antibody, human IgG1, kappa)
heavy: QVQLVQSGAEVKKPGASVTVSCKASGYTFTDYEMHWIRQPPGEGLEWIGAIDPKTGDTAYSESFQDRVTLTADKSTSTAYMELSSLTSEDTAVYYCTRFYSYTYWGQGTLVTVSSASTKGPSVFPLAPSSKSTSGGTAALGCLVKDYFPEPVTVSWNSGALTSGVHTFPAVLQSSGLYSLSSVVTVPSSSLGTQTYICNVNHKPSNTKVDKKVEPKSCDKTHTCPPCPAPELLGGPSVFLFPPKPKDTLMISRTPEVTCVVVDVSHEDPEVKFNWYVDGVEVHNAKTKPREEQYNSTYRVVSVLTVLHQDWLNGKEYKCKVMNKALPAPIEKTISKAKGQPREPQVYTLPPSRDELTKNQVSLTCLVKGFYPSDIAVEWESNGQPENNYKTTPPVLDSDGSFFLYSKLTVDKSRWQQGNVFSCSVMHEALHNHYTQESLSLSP
light: B1 light
notes: as for B2

Legend:
[1] = target: T2, FcγRIIIa extracellular domain with C-terminal His tag (human, UniProt P08637 17-208); assay: SPR (Biacore); He/Con_3a (FcγRIIIa) divided by He/Con_2b (FcγRIIb)
T2 construct: extracellular domain; also called FcgRIIIa; 3a; not shown: His tag attached to the C terminus

[2] = target: T1, FcγRIIb extracellular domain with …; assay: SPR (Biacore T100), antibody captured on antigen peptide chip, FcγR as analyte
Experimental: (§1) Analysis of interaction between objective antibody and the FcγR was carried out using Biacore T100 (GE Healthcare). HBS-EP+ (GE Healthcare) was used as the running buffer, and the measurement temperature was set to 25° C. Chips produced by immobilizing the antigen peptide by the amine coupling method to a Series S Sencor Chip CM5 (GE Healthcare), or alternatively, chips produced by allowing preliminarily biotinylated antigen peptides to interact with and immobilize onto a Series S Sensor Chip SA (certified) (GE Healthcare) were used. Antibodies of interest were captured onto an antigen peptide-immobilized chip, and allowed to interact to each FcγR diluted with running buffer. To regenerate and repeatedly use the chip, the antibodies captured on the chip were washed off by reacting 10 mM glycine-HCl, pH 1.5.

[3] = target: T2, FcγRIIIa extracellular domain with …; assay: as above
Experimental: as §1

[4] = target: T3, FcγRIIIa (human, UniProt P08637 17-208); assay: SPR (Biacore), antibody captured on antigen-peptide chip, FcγR as analyte; binding of Ho Ab / binding of HoCon Ab GpH7-B3/GpL16-k0 x 100
T3 construct: extracellular domain; also called 3a; FcgRIIIa
Experimental: as §1

[5] = target: T3, FcγRIIIa; assay: SPR (Biacore), antibody captured on antigen-peptide chip, FcγR as analyte; binding of He Ab / binding of HeCon Ab GpH7-A5/GpH7-B3/GpL16-k0 x 100

T2 sequence (P08637 17-208): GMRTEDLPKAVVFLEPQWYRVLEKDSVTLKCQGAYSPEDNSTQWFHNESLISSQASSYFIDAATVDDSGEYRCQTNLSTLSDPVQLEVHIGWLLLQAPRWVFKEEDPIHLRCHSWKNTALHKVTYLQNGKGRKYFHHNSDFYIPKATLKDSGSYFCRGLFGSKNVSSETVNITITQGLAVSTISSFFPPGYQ
T3 sequence (P08637 17-208): as above

| Binder | He_3a/2b (IIIa/IIb) [1] | He/Con_2b [2] | He/Con_3a [3] | Ho/Con_3a [4] | further results |
| --- | --- | --- | --- | --- | --- |
| B1 | 0.18 ratio | 109 relative binding, GpH7-A5/GpH7-B3/GpL16-k0 = 100 | 19.5 relative binding, GpH7-A5/GpH7-B3/GpL16-k0 = 100 |  |  |
| B2 |  |  |  | 119 relative to control = 100 |  |
| B3 |  |  |  |  | He/Con_3a [5]: 105 relative to control = 100 |
| B4 |  |  |  |  | He/Con_3a [5]: 113 relative to control = 100 |
| B5 |  |  |  |  | He/Con_3a [5]: 101 relative to control = 100 |
| B6 |  |  |  | 110 relative to control = 100 |  |
| B7 | 0.66 ratio | 116 relative binding, GpH7-A5/GpH7-B3/GpL16-k0 = 100 | 76.4 relative binding, GpH7-A5/GpH7-B3/GpL16-k0 = 100 |  |  |
| B8 |  |  |  |  | He/Con_3a [5]: 102 relative to control = 100 |
| B9 |  |  |  |  | He/Con_3a [5]: 102 relative to control = 100 |
| B10 |  |  |  | 103 relative to control = 100 |  |
| B11 | 0.59 ratio | 193 relative binding, GpH7-A5/GpH7-B3/GpL16-k0 = 100 | 113 relative binding, GpH7-A5/GpH7-B3/GpL16-k0 = 100 |  |  |
| B12 | 0.69 ratio | 103 relative binding, GpH7-A5/GpH7-B3/GpL16-k0 = 100 | 71 relative binding, GpH7-A5/GpH7-B3/GpL16-k0 = 100 |  |  |
| B13 |  |  |  | 107 relative to control = 100 |  |
| B14 |  |  |  |  | He/Con_3a [5]: 181 relative to control = 100 |
| B15 | 0.58 ratio | 310 relative binding, GpH7-A5/GpH7-B3/GpL16-k0 = 100 | 181 relative binding, GpH7-A5/GpH7-B3/GpL16-k0 = 100 |  |  |
| B16 |  |  |  | 112 relative to control = 100 |  |
| B17 | 0.73 ratio | 167 relative binding, GpH7-A5/GpH7-B3/GpL16-k0 = 100 | 122 relative binding, GpH7-A5/GpH7-B3/GpL16-k0 = 100 |  |  |
| B18 | 0.76 ratio | 160 relative binding, GpH7-A5/GpH7-B3/GpL16-k0 = 100 | 122 relative binding, GpH7-A5/GpH7-B3/GpL16-k0 = 100 |  |  |
| B19 | 0.67 ratio | 144 relative binding, GpH7-A5/GpH7-B3/GpL16-k0 = 100 | 96.7 relative binding, GpH7-A5/GpH7-B3/GpL16-k0 = 100 |  |  |
| B20 |  |  |  | 101 relative to control = 100 |  |
| B21 |  |  |  | 108 relative to control = 100 |  |
| B22 |  |  |  | 114 relative to control = 100 |  |
